Assay results reported in the RNAGym collection of RNA variant scans (doi:10.7554/elife.90254).

B1: OR4K15 (parent)
chain: GUUAACGGUCAUAGGCCAUGGAAACUAGGAGCACCAUUUCGCUGCCAGUGAAGAAAUGAACAAAGAAAAUCUGGGCCAGGCAGGCAUCAAAAGAAAUAGUCUUGCGCUCAACCAGAAAGUCUGUAAUCAUUUUAAGGGUA

Variants of: B1
Experiment: self-cleavage, relative activity (ratio to wild type); higher = more cleavage; in vitro, sequencing; the parent is a self-cleaving ribozyme
With A110C A135U the self-cleavage was 0.06.
Work on A117G A126G yielded a self-cleavage of 1.27.
For A111G U124G, the self-cleavage was 0.01.
A118G U122A gave a self-cleavage of 0.79.
Work on U120C G138U yielded a self-cleavage of 2.11.
In the case of A111G U120C, the self-cleavage is reported as 0.01.
Variant U120A has a self-cleavage of 1.61.
U120C gave a self-cleavage of 0.8.
U120G gave a self-cleavage of 1.31.
U122C A129U gave a self-cleavage of 0.49.
A118G A140G showed a self-cleavage of 1.32.
Work on A118G A140U yielded a self-cleavage of 1.28.
For A118G U139G, the self-cleavage was 0.07.
Variant U122A U133A has a self-cleavage of 1.43.
Work on U122A U133C yielded a self-cleavage of 2.07.
C109U A117G showed a self-cleavage of 0.44.
With A116U A134U the self-cleavage was 0.33.
Work on A111G U127C yielded a self-cleavage of 0.01.
A111G U127G gave a self-cleavage of 0.02.
A111G U127A showed a self-cleavage of 0.01.
A114U A140U gave a self-cleavage of 0.1.
A111U A125G gave a self-cleavage of 0.01.
A114U A134G gave a self-cleavage of 0.04.
C112G U124C gave a self-cleavage of 0.
In the case of U124C U130C, the self-cleavage is reported as 0.57.
U124C U130G showed a self-cleavage of 0.87.
Variant U108G U133C has a self-cleavage of 0.02.
Variant A111G A126U has a self-cleavage of 0.01.
With U124G A125G the self-cleavage was 0.6.
Work on U124G A125U yielded a self-cleavage of 1.25.
Work on C112G A135U yielded a self-cleavage of 0.01.
In the case of U122C U124C, the self-cleavage is reported as 0.67.
Variant C113U has a self-cleavage of 0.08.
C113G gave a self-cleavage of 0.01.
Variant C113A has a self-cleavage of 0.03.
Variant A114G G123A has a self-cleavage of 0.12.
Variant C109U U127G has a self-cleavage of 0.62.
Variant A110G G137A has a self-cleavage of 0.18.
Variant A114G U127A has a self-cleavage of 0.47.
In the case of A117U A126G, the self-cleavage is reported as 0.89.
Work on A118U A125G yielded a self-cleavage of 0.86.
Work on U120C U127C yielded a self-cleavage of 0.43.
G115A C128U gave a self-cleavage of 0.06.
U120A U124C gave a self-cleavage of 1.04.
A118C U132C showed a self-cleavage of 0.57.
For A111C A135U, the self-cleavage was 0.03.
U124C A140G gave a self-cleavage of 0.57.
U122A A125U showed a self-cleavage of 2.05.
Work on A116G U124C yielded a self-cleavage of 0.36.
For A116U A126U, the self-cleavage was 0.21.
With A114G A135G the self-cleavage was 0.93.
A114G A135U gave a self-cleavage of 0.15.
Work on A110G A125C yielded a self-cleavage of 0.17.
U122C U132C gave a self-cleavage of 0.49.
U122C U132A gave a self-cleavage of 0.43.
In the case of A117G U131C, the self-cleavage is reported as 1.15.
For A116G A125G, the self-cleavage was 0.23.
Work on A114U U130C yielded a self-cleavage of 0.01.
Work on A125U U127C yielded a self-cleavage of 1.28.
Work on A118G U133C yielded a self-cleavage of 1.23.
Work on A116G U131C yielded a self-cleavage of 0.27.
Variant A116G U131G has a self-cleavage of 0.3.
U122C U139A gave a self-cleavage of 1.1.
Work on A111G G136U yielded a self-cleavage of 0.02.
Work on A110U A140G yielded a self-cleavage of 2.04.
A114C A117G gave a self-cleavage of 0.05.
G115A A134G gave a self-cleavage of 0.12.
With C113U U120C the self-cleavage was 0.04.
Work on C112U A118G yielded a self-cleavage of 0.
Variant A114C G137A has a self-cleavage of 0.07.
In the case of U124C A135C, the self-cleavage is reported as 0.06.
With U124C A135G the self-cleavage was 1.33.
With A111U A116G the self-cleavage was 0.04.
For A110G G138U, the self-cleavage was 0.13.
Variant C121A U132A has a self-cleavage of 1.42.
Work on U120C A125G yielded a self-cleavage of 0.43.
Work on U120C A125U yielded a self-cleavage of 1.38.
Variant A110G A111G has a self-cleavage of 0.02.
With A111G A135G the self-cleavage was 0.02.
In the case of G115A U132G, the self-cleavage is reported as 0.01.
Work on A114G G138C yielded a self-cleavage of 0.31.
With G119A U122C the self-cleavage was 1.11.
With A116G U139C the self-cleavage was 1.17.
A110G A140C gave a self-cleavage of 0.14.
A110G A140G showed a self-cleavage of 0.15.
U124A U133G gave a self-cleavage of 0.43.
G123U U130C gave a self-cleavage of 0.44.
In the case of U124C U132C, the self-cleavage is reported as 1.13.
In the case of A111U U120C, the self-cleavage is reported as 0.03.
In the case of U120C C128A, the self-cleavage is reported as 0.69.
Variant A116G U120C has a self-cleavage of 0.27.
A110C A116G gave a self-cleavage of 0.26.
A117C G136A showed a self-cleavage of 0.78.
Variant A116G A126U has a self-cleavage of 1.04.
A114U A117G showed a self-cleavage of 0.04.
Variant A111U A126C has a self-cleavage of 0.06.
C109U A114G showed a self-cleavage of 0.2.
U120C U130A gave a self-cleavage of 0.71.
C112A A125G gave a self-cleavage of 0.01.
Work on A117G G138C yielded a self-cleavage of 2.13.
With A114G C128U the self-cleavage was 0.11.
For A114U G123A, the self-cleavage was 0.11.
For A114G A134G, the self-cleavage was 0.63.
Variant U122C A125G has a self-cleavage of 0.38.
In the case of U122C A125C, the self-cleavage is reported as 0.72.
With A116G G138A the self-cleavage was 0.8.
Variant U124C A125G has a self-cleavage of 1.32.
A125U A140G gave a self-cleavage of 1.42.
For C109U A125G, the self-cleavage was 0.17.
Work on U124A U139C yielded a self-cleavage of 1.26.
Work on A114U U124G yielded a self-cleavage of 0.06.
A125G A140G gave a self-cleavage of 0.69.
Variant A116U A118G has a self-cleavage of 0.07.
Work on C113U U132A yielded a self-cleavage of 0.06.
Work on A114C A125G yielded a self-cleavage of 0.01.
For A110U U139C, the self-cleavage was 0.59.
A114G A116U showed a self-cleavage of 0.05.
For A114G A126U, the self-cleavage was 0.46.
For A114G A126G, the self-cleavage was 0.28.
Variant U122A A135G has a self-cleavage of 2.11.
Work on C109U A126G yielded a self-cleavage of 0.14.
With U122A the self-cleavage was 1.21.
Variant U122C has a self-cleavage of 0.93.
Variant U122G has a self-cleavage of 2.57.
A110C U131A showed a self-cleavage of 0.17.
A114G U130C showed a self-cleavage of 0.38.
In the case of A116G A117U, the self-cleavage is reported as 0.44.
With A125G U132C the self-cleavage was 0.52.
With A125G U132A the self-cleavage was 0.32.
With A117G A134G the self-cleavage was 0.61.
A114U U127C showed a self-cleavage of 0.03.
U120C A135C gave a self-cleavage of 1.51.
Variant U122A U132C has a self-cleavage of 2.13.
A114G U133C gave a self-cleavage of 0.12.
Work on U120C U122A yielded a self-cleavage of 0.26.
U120C U122G gave a self-cleavage of 2.61.
For U120C G136A, the self-cleavage was 1.65.
In the case of A114U U132C, the self-cleavage is reported as 0.02.
Variant A114U U132A has a self-cleavage of 0.08.
For A118U U130C, the self-cleavage was 0.4.
Variant A110G U124C has a self-cleavage of 0.14.
Variant A110G U124A has a self-cleavage of 0.09.
With C113A U120C the self-cleavage was 0.02.
U124C U127C showed a self-cleavage of 0.84.
U122C A135U gave a self-cleavage of 1.06.
In the case of U122C A135G, the self-cleavage is reported as 1.24.
Work on A117U A129U yielded a self-cleavage of 0.62.
For A117G A125G, the self-cleavage was 0.66.
C109A A118C showed a self-cleavage of 0.14.
Variant C112U A129G has a self-cleavage of 0.01.
In the case of U122A A129G, the self-cleavage is reported as 1.38.
A114G U120A showed a self-cleavage of 0.2.
A110G A135G showed a self-cleavage of 0.12.
C109U U130C showed a self-cleavage of 0.35.
Variant C109U U130A has a self-cleavage of 0.25.
Work on U122C U131A yielded a self-cleavage of 1.25.
Variant U122C U131C has a self-cleavage of 1.13.
U122C U131G showed a self-cleavage of 0.88.
Work on U120A A135G yielded a self-cleavage of 1.1.
A116U U127C gave a self-cleavage of 0.23.
With A116G A118G the self-cleavage was 0.22.
Work on A118U U122A yielded a self-cleavage of 1.08.
With A110G A118G the self-cleavage was 0.08.
A116U U131C gave a self-cleavage of 0.11.
A125U A134G gave a self-cleavage of 1.48.
With A116G U130A the self-cleavage was 0.51.
In the case of U122C G138U, the self-cleavage is reported as 1.37.
